# In patent publication US20050069542A1 (Human Genome Sciences, published 2005):
# Substitutions are numbered along the chain they refer to.
# B1: GMBC642 (scFv)
# scFv: QVQLQQSGAEVKKPGASVKVSCKASGYTFTIHYMHWVRQAPGQGLEWMGIINPGDGSTSYAQNFQGRVTMTRDTSTSTVYMELSSLRSEDTAVYYCARAGRTVTSHFDYWGRGTLATVSSGGGGSGGGGSGGGGSSELTQDPAVSVALGQTVRITCQGDSLRSYYASWYQQKPGQAPVLVIYGKNNRPSGIPDRFSGSSSGNTASLTITGAQAEDEADYYCNSRDSSGNHVVFGGGTKLTVLG
# B2: GMBC630 (scFv)
# scFv: QVQLVESGGGLVQPGRSLRLPCAASGFTFSSYGMHWVRQAPGKGLEWVAVISYDGSNKYYADSVKGRFTISRDNSKNTLYLQMNSLRAEDTAVYYCAKATSLLNAFDIWGRGTMVTVSSGGGGSGGGGSGGGGSSELTQDPAVSVALGQTVRITCQGDSLRSYYASWYQQKPGQAPVLVIYGKNNRPSGIPDRFSGSSSGNTASLTITGAQAEDEADYYCNSRDSSGNHVVFGGGTKLTVLG
# B3: GMBC629 (scFv)
# scFv: QVQLVESGGGLVKPGGSLRLSCAGSGFKFSDAWMNWVRQAPGKGLEWVGRIKSKGSGGTIEYAVPVKDRFIISRDDSKDTLYLQMNSLKTEDTALYYCTWDWDFYYGMNVWGQGTLVTVSSGGGGSGGGGSGGGGSSELTQDPAVSVALGQTVRITCQGDSLRSYYTNWFQQKPGQAPLLVVYAKNKRPSGIPDRFSGSSSGNTASLTITGAQAEDEADYYCHSRDSSGNHVLFGGGTKLTVLG
# B4: GMBC729 (scFv)
# scFv: B3 scFv with V5Q, V64A, N86D, S164N
# B5: GMBC685 (scFv)
# scFv: QVQLVESGGVVVQPGGSLRLSCAASGFTFSDAWMNWVRQAPGKGLEWVGRIKSKGSGGTIDYAAPVKDRFTISRDDSKNTLYLQMNSLKTEDTALYYCTWDWDFYYGMNVWGKGTMVTVSSGGGGSGGGGSGGGGSSELTQDPAVSVALGQTVRITCQGDSLRSYYTNWFQQKPGQAPLLVVYAKNKRPSGIPDRFSGSSSGNTASLTITGAQAEDEADYYCHSRDSSGNHVLFGGGTKLTVLG
# B6: GMBC639 (scFv)
# scFv: GVQLVQSGAEVKTPGASVKVSCKASGYTFTNHYMHWVRQAPGQGIEWVGVINPSGDGSSYAQTFQGRVTMTRDTSTSTVYMELRSLRSDDTAVYYCARDLFYDFWSDYYRNDQYYYMDVWGKGTLVTVSSGGGGSGGGGSGGGGSSELTQDPAVSVALGQAVRITCQGDSLRSYYASWYQQKPGQAPVLVIYGKNNRPSGIPDRFSGSSSGNTASLTITGAQAEDEADYYCNSRDSSGNHVVFGGGTKLTVLG
# B7: GMBC662 (scFv)
# scFv: GVQLVQSGAEVKKPGSSVKVSCKASGGTFSSYTISWVRQAPGQGLEWMGRIIPILGIANYAQKFQGRVTITADKSTSTAYMELSSLRSEDTAVYYCAREKLRDFQHWGQGTLVTVSSGGGGSGGGGSGGGGSQSVLTQPASVSGSPGQSITISCTGTSSDVGGYNYVSWYQQHPGKAPKLMIYEGSKRPSGISNRFSGSKSGNTASLTISRLQAEDEADYYCSSYTTRSTRVFGGGTKLTVLG
# B8: GMBC628 (scFv)
# scFv: QVQLQQSGAEVKKPGASVRVSCKASGYTFTSYGFSWVRQAPGQRLEWMGWISAYKGNANYAEKFQGRVTMTTDTSTNTAYMELRSLRSDDTAVYYCARTRISVAGLDYYYYGLDVWGRGTLVTVSSGGGGSGGGGSGGGGSSELTQDPAVSVALGQTVRITCQGDSLRSYYTNWFQQKPGQAPLLVVYAKNNRPSGIPDRFSGSSSGNTASLTITGAQAEDEADYYCNSRDSSGNHVVFGGGTKLTVLG
# B9: GMBC652 (scFv)
# scFv: GVQLVQSGGVVVKPGGSLRLSCAASGFTFSDAWMNWVRQAPGKGLEWVGRIKSKGSGGTTDYAAPVKGRFTISRDDSENTLYLQMNSLKTEDTAVYYCTWDHSYYYDMAVWGRGTMVTASSGGGGSGGGGSGGGGSQSVLTQPASVSGSPGQSITISCTGTSSDVGGYNYVSWYQQHPGKAPKFMIYDVSKRPSGVSNRFSGSKSGNTASLTISGVQAEDEADYYCSSYTSASTVIFGGGTKLTVLG
# B10: GMBC606 (scFv)
# scFv: EVQLVQSGGGVVQPGGSLRLSCAASGFTFSSYGMHWVRQAPGKGLEWVAFIRYDGSNKYYADSVKGRFTISRDNSKNTLYLQMNSLRAEDTAVYYCAKSSSFANAFDIWGQGTTVTVSSGGGGSGGGGSGGGGSSELTQDPAVSVALGQTVRITCQGDSLRSYYASWYQQKPGQAPVLVIYGKNNRPSGIPDRFSGSSSGNTASLTITGAQAEDEADYYCNSRDSSGNHVVFGGGTKLTVLG
# B11: GMBC725 (scFv)
# scFv: B10 scFv with S7T, R52L, F102S, N104S, G110R, G112R
# B12: GMBC646 (scFv)
# scFv: GVQLVQSGAEVKKPGASVKVSCKASGYTFTSYYIHWVRQAPGQGLEWMGIINPSGGTTSYAQKFQGRVTMTRDTSTSTVYMELSSLRSEDTAMYYCARERFLRGMDVWGRGTMVTVSSGGGGSGGGGSGGGGSDIVMTQSPSTLSASVGDRVTITCRASQGISSWLAWYQQKPGRAPKVLIYKASTLESGVPSRFSGSGSGTDFTLTISSLQPEDFATYYCQQSYSTPWTFGQGTKLEIKR
# B13: GMBC641 (scFv)
# scFv: EVQLVESGGGVVRPGRSLRLSCAASGFSFSSYGMHWVRQAPGKGLEWVSAISGSGGSTYYADSVKGRFTISRDNSKNTLYLQMNSLRAEDTAVYFCAKGGDRSFRAFDFWGQGTMVTVSSGGGGSGGGGSGGGGSSELTQDPAVSVALGQTVRITCQGDSLRSYYASWYQQKPGQAPVLVIYGKNNRPSGIPDRFSGSSSGNTASLTITGAQAEDEADYYCNSRDSSGNHVVFGGGTKLTVLG
# B14: GMBC665 (scFv)
# scFv: EVQLVETGGGLVKPGGSLRLSCAASGFTFSDAWMNWVRQAPGKGLEWVGRIKSKGSGGTIDYAAPVKDRFTISRDDSKNTLYLQMNSLKTEDTALYYCTWDWDFYYGMNVWGQGTMVTVSSGGGGSGGGGSGGGGSSELTQDPAVSVALGQTVRITCQGDSLRSYYASWYQQKPGQAPVLVIYGKNNRPSGIPDRFSGSSSGNTASLTITGAQAEDEADYYCNSRDSSGNHVVFGGGTKLTVLG
# B15: GMBC648 (scFv)
# scFv: B14 scFv with E1Q, T7S, G55R, A144T
# B16: GMBC668 (scFv)
# scFv: EVQLVESGGGLVKPGGSLRLSCAASGFTFSDAWMNWVRQAPGKGLEWVGRIKSKGSGGTTDYAAPVKGRFTISRDDSENTLYLQMNSLKTEDTAVYYCTWDHSYYYDMAVWGRGTLVTVSSGGGGSGGGGSGGGGSSELTQDPAVSVALGQTVRITCQGDSLRSYYASWYQQKPGQAPVLVIYGKNNRPSGIPDRFSGSSSGNTASLTITGAQAEDEADYYCNSRDSSGNHVVFGGGTKLTVLG
# B17: GMBC682 (scFv)
# scFv: B14 scFv with E1Q, T7S, L11V, T28K, Q113R, M116L
# B18: GMBC635 (scFv)
# scFv: B14 scFv with T7S, F70Y, Q113K
# B19: GMBC632 (scFv)
# scFv: B14 scFv with E1Q, E6Q, T7S, A24G, T28K, D61E, T71I, N79D, G107D, S197F
# B20: GMBC657 (scFv)
# scFv: QMQLMQSGGGLVKPGGSLRLSCAGSGFKFSDAWMNWVRQAPGKGLEWVGRIKSKGSGGTIEYAAPVKDRFIISRDDSKDTLYLQMNSLKTEDTALYYCTWDWDFYYGMNVWGQGTLVTVSSGGGGSGGGGSGGGGSSELTQDPAVSVALGQTVRITCQGDSLRSYYASWYQQKPGQAPVLVIYGKNNRPSGIPDRFSGSSSGNTASLTITGAQAEDEADYYCNSRDSSGNHVVFGGGTKLTVLG
# B21: GMBC655 (scFv)
# scFv: EVQLVESGGGLVKPGGSLRLSCAASGFTFSSYGMSWIRQAPGKGQEWVSAISGSGGSAYYADSVKGRFTISRDNSKNTLYLQMNSLRAEDTAVYYCAKAYSSEDYWGRGTMVTVSSGGGGSGGGGSGGGGSNIQMTQSPSFLSASVGDRVTITCRASQGINNYLAWYQQKPGRAPKLLIYAASSLQSGVPSRFSGSGSGTDFTLTISSLQPDDFATYYCQQYSNYPLTFGGGTKLEIKR
# Target: T1, flag-tagged soluble TL3 (amino acids 105-251 of SEQ ID NO:234) (Homo sapiens (Human), UniProt O75888 105-250)
# T1 construct: Heterologous flag-tagged control protein, immobilized in the ELISA; also called flagged tagged TL-3; not shown: Flag tag
# T1 sequence: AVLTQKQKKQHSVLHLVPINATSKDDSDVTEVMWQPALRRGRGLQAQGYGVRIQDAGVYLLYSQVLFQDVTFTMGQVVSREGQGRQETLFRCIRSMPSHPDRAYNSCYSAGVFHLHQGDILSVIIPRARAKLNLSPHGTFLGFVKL
# Assay: phage ELISA on immobilized flag-tagged soluble TL3
# Procedure: The individual phage isolates in the panel of phage, each phage expressing a unique scFv that bound to flag-tagged GMAD, were tested to ensure specificity for GMAD using an ELISA assay. The scFvs were tested in an ELISA for their ability to bind a heterologous flag-tagged protein, in this case—immobilized soluble TL3 (amino acids 105-251 of SEQ ID NO:234, GenBank Accesion Number NP_{—}003799, also described in International Patent Application Publication Number WO97/33902 and WO2001/96528 which are herein incorporated by reference in their entireties).
row,Binder,binding result
1,B1,no binding
2,B2,no binding
3,B3,no binding
4,B4,no binding
5,B5,no binding
6,B6,no binding
7,B7,no binding
8,B8,no binding
9,B9,no binding
10,B10,no binding
11,B11,no binding
12,B12,no binding
13,B13,no binding
14,B14,no binding
15,B15,no binding
16,B16,no binding
17,B17,no binding
18,B18,no binding
19,B19,no binding
20,B20,no binding
21,B21,no binding
